# According to CN104231083A (GMAX BIOPHARM CO LTD, dated 2014):
# B1: 单克隆抗体A-1 (antibody, V domains shown)
# VH: QIQLVQSGPELKKPGETVKISCKASGYTFTNYGMNWVKQAPGKGLKWMGWINTNTGEPTYVEEFKGRFAFSLETSDSTAYLQINNLKNEDTATYFCANLYWGQGTTLTVSS
# VL: DVLMTQTPLSLPVSLGDQASISCRSSQNILHSNGNTYLEWYLQKPGQSPKLLIFKVSNRFSGVPDRFSGSGSGTDFTLKISRVEAEDLGVYYCFQGSHVPWTFGGGTKLEIK
# notes: Mouse monoclonal antibody; Tested as hybridoma supernatant (FACS) and as purified antibody / antibody supernatant (cAMP assay); also called L1H1
# B2: 单克隆抗体A-2 (antibody, V domains shown)
# VH: QIQLVQSGPELKKPGETVKISCKASGYTFTNYGMNWVKQAPGKGLKWMGWINTYNGEPTYADDFKGRCAFFLETSASTAYLQLNNLKNEDTATYFCTREYYISNYGAMDYWGQGTSVTVSS
# VL: DIQMTQTTSSLSASLGDRVTISCRASQDISNYLNWYQQKPDGTVKLLIYYTSRLHSGVPSRFSGSGSGADYSLTIANLDQEDIATYFCQQGILFPLTFGAGTKLELK
# notes: Mouse monoclonal antibody; Tested as hybridoma supernatant (FACS) and as purified antibody / antibody supernatant (cAMP assay); also called L2H2
# B3: 单克隆抗体A-3 (antibody, V domains shown)
# VH: EVKLVESGGGLVQPGGSRKLSCAASGFPFSDYGLAWFRQAPGKGPEWVAFISNLAYSTYYADTVTGRFTISRENAKNTLFLEMSSLRSEDTAMYYCARDRGLFDYWGQGTTLTVSS
# VL: DVVMTQIPLSLPVSLGDQASISCRSSQSLVHSNGNTYLHWYLQKPGQSPKLLIYKVSNRFSGVPDRFSGSGSGTDFTLKISRVEAEDLGVYFCSQSTHVPPYTFGGGTKLEIKR
# notes: Mouse monoclonal antibody; Tested as hybridoma supernatant (FACS) and as purified antibody / antibody supernatant (cAMP assay); also called L3H3
# Target: T1, 人胰高血糖素受体 (human glucagon receptor) (human, UniProt P47871 26-477)
# T1 construct: Overexpressed on stably transfected CHO-DHFR- cells; also called hGCGR; GCGR
# Assay: flow cytometry, hybridoma supernatant on CHO-DHFR-hGCGR cells
# T1 sequence (P47871 26-477 limits assumed): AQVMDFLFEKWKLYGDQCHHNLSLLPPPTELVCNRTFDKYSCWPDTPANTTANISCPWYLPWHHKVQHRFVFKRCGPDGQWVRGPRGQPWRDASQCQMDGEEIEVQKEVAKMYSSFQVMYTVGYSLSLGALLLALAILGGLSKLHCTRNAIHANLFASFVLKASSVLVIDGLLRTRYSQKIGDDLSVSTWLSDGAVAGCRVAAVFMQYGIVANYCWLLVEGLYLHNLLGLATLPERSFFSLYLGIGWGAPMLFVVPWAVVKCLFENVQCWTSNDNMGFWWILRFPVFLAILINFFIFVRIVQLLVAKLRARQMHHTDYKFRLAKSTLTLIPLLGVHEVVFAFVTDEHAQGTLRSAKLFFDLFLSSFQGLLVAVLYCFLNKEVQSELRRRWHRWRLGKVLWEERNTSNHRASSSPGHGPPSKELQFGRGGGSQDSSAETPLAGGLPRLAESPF
row,binding result,Binder
1,binds,B1
2,binds,B2
3,binds,B3
